Patent US20120282637A1 (Sanofi, published 2012)
Several values for one entry are separate records, joined by “and”; a condition that tells them apart may be missing. Identical values can stand only once.

Key:
RAGE-Fc [1] = biological target: T1, RAGE-Fc (human, UniProt Q15109 23-344, limits assumed); assay: competition ELISA, hRAGE-S100B interaction
T1 construct: also called hRAGE; not shown: Fc part, detected with anti-hIgG Fc-specific conjugate

RAGE C2 domain = biological target: T2, RAGE C2 domain (UniProt Q15109 235-327, limits assumed); assay: domain mapping, Table 1
T2 construct: domain: C2 domain
T2 sequence (Q15109 235-327 limits assumed): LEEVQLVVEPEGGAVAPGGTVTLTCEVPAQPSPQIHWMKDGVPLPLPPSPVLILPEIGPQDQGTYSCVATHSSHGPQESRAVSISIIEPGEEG

RAGE V domain = biological target: T3, RAGE V domain (UniProt Q15109 23-121, limits assumed); assay: domain mapping, Table 1
T3 construct: domain: V domain
T3 sequence (Q15109 23-121 limits assumed): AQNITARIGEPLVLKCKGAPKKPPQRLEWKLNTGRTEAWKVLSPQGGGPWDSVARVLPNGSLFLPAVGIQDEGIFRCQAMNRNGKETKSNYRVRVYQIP

RAGE-Fc [2] = biological target: T1, RAGE-Fc; assay: competition ELISA, RAGE-S100B interaction
RAGE-Fc [3] = biological target: T1, RAGE-Fc; assay: competition ELISA against S100A6, mAb 10 µg/mL
Procedure: (§1) For the S100A6 Competition ELISA Assay wells have been coated with S100A6 at 0.5 μg/well. Thereafter, RAGE-Fc at 10 μg/mL and competing mAb at 10 μg/mL have been pre-incubated at room temperature for 30 min. The mixture was transferred into S100A6-coated plates and incubated under agitation at room temperature for 2 hours. Bound RAGE-Fc was detected with anti-hIgG Fc-specific-POD using TMB (3, 3′, 5, 5′-Tetramethylbenzidine) at 450 nm.

RAGE-Fc [4] = biological target: T1, RAGE-Fc; assay: competition ELISA, RAGE-S100A6 interaction
RAGE-Fc [5] = biological target: T1, RAGE-Fc; assay: competition ELISA, RAGE-Fc binding to coated S100A6
Procedure: as §1
For this, coating with S100A6 was carried out as detailed above. RAGE-Fc at 10 μg/mL was incubetd with competing mAb (2-fold serial dilutions starting at 100 μg/ml at room temperature for 2 hours. Binding was detected by anti IgG Fc-specific antibody peroxydase conjugate using TMB1 component HRP at 450 nm.

[6] = biological target: T4, sRAGE (V-C1-C2) lot LP08062 (human, UniProt Q15109 23-331, limits assumed); assay: SPR (Biacore), mAb captured on anti-mouse Fc, sRAGE 15 nM, Langmuir 1:1
T4 construct: domain: V-C1-C2; also called Human RAGE; LP08062 (Rage)
T4 sequence (Q15109 23-331 limits assumed): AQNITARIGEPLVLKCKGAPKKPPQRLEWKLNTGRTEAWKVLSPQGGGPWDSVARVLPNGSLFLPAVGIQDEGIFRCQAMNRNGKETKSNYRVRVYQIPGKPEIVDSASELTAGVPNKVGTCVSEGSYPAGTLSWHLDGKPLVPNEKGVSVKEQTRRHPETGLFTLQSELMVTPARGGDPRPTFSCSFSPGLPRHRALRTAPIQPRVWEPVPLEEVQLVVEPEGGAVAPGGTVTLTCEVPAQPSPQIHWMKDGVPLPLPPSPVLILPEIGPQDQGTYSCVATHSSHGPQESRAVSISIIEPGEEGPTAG
Procedure: The assay is based on a capture assay using immobilized anti-mouse Fc IgG on CM5 chip. For immobilization of anti-Fc antibody HBS-EP was used as running buffer. Standard amine coupling to a CM5 chip was carried out at a contact time of 11 min and a flow rate of 10 μl/min. 10 mM Sodium Acetate pH 5.0 was used as immobilization buffer. The protein concentration (anti-mouse Fc, Biacore BR-1008-38) was 100 μg/mL.
For binding analysis SN anti-RAGE mAb diluted in running buffer at 1/10 (flow rate 5 μl/min) and sRAGE (V-C1-C2) lot LP08062 diluted in running buffer at 15 nM (flow rate 50 μl/min) was used as […], respectively (running buffer: HBS-P+BSA 12 mg/mL+CM Dextran 12 mg/mL and Regeneration solution: 10 mM Glycine pH 1.7). Langmuir 1:1 analysis was used as fitting model.

RAGE-Fc [7] = biological target: T1, RAGE-Fc; assay: competition ELISA, hRAGE-S100A6 interaction
rat sRAGE = rat sRAGE (rat, UniProt Q63495 23-341, limits assumed); assay: ELISA, O.D. 450 nm, one bar per species; plate format and antibody concentration not given
rat sRAGE, sequence (Q63495 23-341 limits assumed): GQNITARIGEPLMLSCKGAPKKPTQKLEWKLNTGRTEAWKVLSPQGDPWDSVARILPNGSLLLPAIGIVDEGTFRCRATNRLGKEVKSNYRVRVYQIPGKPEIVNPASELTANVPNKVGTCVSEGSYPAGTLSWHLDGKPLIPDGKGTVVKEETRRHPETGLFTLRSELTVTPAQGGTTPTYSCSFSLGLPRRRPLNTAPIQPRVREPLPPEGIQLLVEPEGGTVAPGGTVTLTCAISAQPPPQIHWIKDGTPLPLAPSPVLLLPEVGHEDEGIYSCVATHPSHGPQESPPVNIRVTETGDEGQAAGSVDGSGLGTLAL

mouse sRAGE = mouse sRAGE (mouse, UniProt Q62151 23-340, limits assumed); assay: as above
mouse sRAGE, sequence (Q62151 23-340 limits assumed): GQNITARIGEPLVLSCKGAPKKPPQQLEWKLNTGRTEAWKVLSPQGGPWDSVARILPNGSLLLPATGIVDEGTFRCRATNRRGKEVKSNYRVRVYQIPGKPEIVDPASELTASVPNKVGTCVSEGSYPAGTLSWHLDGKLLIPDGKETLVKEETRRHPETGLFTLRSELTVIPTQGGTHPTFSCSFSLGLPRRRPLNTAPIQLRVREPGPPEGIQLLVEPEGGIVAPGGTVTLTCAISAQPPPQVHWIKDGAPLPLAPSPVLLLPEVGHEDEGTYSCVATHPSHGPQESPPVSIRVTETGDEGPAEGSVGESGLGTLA

RAGE-Fc [8] = biological target: T1, RAGE-Fc; assay: competition ELISA, RAGE-HMGB1 interaction
RAGE-Fc [9] = biological target: T1, RAGE-Fc; assay: competition ELISA, hRAGE-HMGB1 interaction
RAGE V-C1 domains = biological target: T5, RAGE V-C1 domains (UniProt Q15109 23-233, limits assumed); assay: domain mapping, Table 1
T5 construct: domain: V-C1 domains
T5 sequence (Q15109 23-233 limits assumed): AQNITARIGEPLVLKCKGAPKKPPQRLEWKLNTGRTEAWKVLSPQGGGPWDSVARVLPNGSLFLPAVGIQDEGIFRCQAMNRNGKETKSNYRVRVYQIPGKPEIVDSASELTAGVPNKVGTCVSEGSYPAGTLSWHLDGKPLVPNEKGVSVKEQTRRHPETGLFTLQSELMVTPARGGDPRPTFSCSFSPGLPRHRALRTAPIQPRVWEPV

T1 sequence (Q15109 23-344 limits assumed): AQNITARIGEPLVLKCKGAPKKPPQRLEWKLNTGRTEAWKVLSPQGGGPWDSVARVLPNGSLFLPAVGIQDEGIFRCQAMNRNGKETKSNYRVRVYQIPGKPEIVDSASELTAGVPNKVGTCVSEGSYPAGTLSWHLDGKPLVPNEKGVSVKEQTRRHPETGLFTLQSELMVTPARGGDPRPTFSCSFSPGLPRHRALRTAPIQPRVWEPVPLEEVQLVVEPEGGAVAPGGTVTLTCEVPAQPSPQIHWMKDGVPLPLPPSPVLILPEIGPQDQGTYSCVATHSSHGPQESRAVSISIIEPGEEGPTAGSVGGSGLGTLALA

Row | Binder | IC50 (RAGE-Fc [1]) | binding result (RAGE C2 domain) | binding result (RAGE V domain) | IC50 (RAGE-Fc [2]) [nM] | inhibitory effect (RAGE-Fc [3]) [%] | IC50 (RAGE-Fc [4]) [nM] | IC50 (RAGE-Fc [5]) | Kd [6] [nM] | koff [6] [s⁻¹] | kon [6] [M⁻¹ s⁻¹] | maximum inhibitory effect (RAGE-Fc [7]) [%] | binding result (rat sRAGE) | binding result (mouse sRAGE) | IC50 (RAGE-Fc [8]) [nM] | IC50 (RAGE-Fc [9]) | binding result (RAGE V-C1 domains)
1 | Control XT-M4 (antibody, V domains shown) VH: EVQLVESGGGLVQPGRSLKLSCVVSGFTFNNYWMTWIRQTPGKGLEWVASINNSGDNTYYPDSVKDRFTISRDNAKSTLYLQMNSLRSEDTATYYCTRGGDITTGFDYWGQGVMVTVSS VL: DIQMTQSPSSMSVSLGDTITITCRASQDVGIYVNWFQQKPGKSPRRMIYRATNLADGVPSRFSGSRSGSIYSLTISSLESEDVADYHCLEFDEHPLTFGSGTKVEIK | 0.208 µg/mL | – | – | 1.37 | – | 34.6 | 5.2 µg/mL | – | – | – | – | – | – | 1.79 | 0.272 µg/mL | –
2 | 164 RAGE-1 (antibody, V domains shown, Anti-RAGE monoclonal antibody from a hybridoma, captured by anti-mouse Fc; also called LP08106; Protein 164 RAGE-1) VH: not shown VL: NIVMTQSPKSMSMSVGERVTLSCKASENVGTYVSWYQQKPEQSPKLLIYGASNRYTGVPDRFTGSGSATDFTLTISSVQAEDLADYHCGQSYTYPYTFGGGTKLEIK | – | – | no binding | – | – | – | – | 1.13 | 0.00203 | 1.8e+06 | – | – | – | – | – | no binding
3 | 56 RAGE-1 (antibody, V domains shown, Anti-RAGE monoclonal antibody from a hybridoma, captured by anti-mouse Fc; also called LP08103; Protein 56 RAGE-1) VH: QVQLQQSGPELVKPGASVRISCKASGYTFTSYFIHWVKQRPGQGLEWIGWIYPGNVNTKYNEKFKDKATLTADKSSSTAYMQLSNLTSEDSAVYFCVRGQLGDYWGQGITLTVSS VL: DIVMTQSQKFMSTSVGDRVSVTCKASQNVGINVAWYQQKPGQSPKALIYSASYRYSGVPDRFTGSGSGTDFTLIISNVQSEDLAEYFCQQYNNYPRTFGGGTKLEIK | – | – | no binding | – | > 20 | 7.7 | 1.16 µg/mL and 7.73 nM | 1.87 | 0.00539 | 2.89e+06 | ≤ 50 | – | – | – | – | no binding
4 | 152 RAGE-1 (antibody, V domains shown, Anti-RAGE monoclonal antibody from a hybridoma, captured by anti-mouse Fc; also called LP08104; Protein 152 RAGE-1) VH: DVQLQESGPDLVKPSQSLSLTCTVTGYSITSGYSWHWIRQFPGNKLEWMGYIHYSGSTNYNPSLKSRISITRDTSKNQFFLQLNSVTTEDTATYYCARGGDFAYWGQGTLVTVSA VL: DIVLTQSPASLAVSLGQRATISCRASKSVGTSDSSYMHWYQQKPGQPPKLLIYLASNLESGVPARFSGSGSGTDFTLNIHPVEEEDAATYYCQHSRELYTFGGGTKLEIK | – | no binding | – | – | > 20 | – | – | 0.687 | 0.00265 | 3.86e+06 | – | – | – | – | – | –
5 | 158 RAGE-1 (antibody, V domains shown, Anti-RAGE monoclonal antibody from a hybridoma, captured by anti-mouse Fc; also called LP08105) VH: QIQLVQSGPELKKPGETVKISCKASGYTFTDYSMHWVKQAPGKGLKWMGWINTETGEPTYADDFKGRFAFSLETSASTAYLLINNLKTEDTATYFCARDYLYYYAMDYWGQGTSVTVSS VL: DVVLTQTPLSLPVNIGDQASISCKSTKSLLNSDGFTYLDWYLQKPGQSPQLLIYLVSNRFSGVPDRFSGSGSGTDFTLKISRVEAEDLGVYYCFQSNYLPLTFGGGTKVEIK | 0.109 µg/mL | no binding | – | 0.7 | > 20 | 45.3 | 6.79 µg/mL | 0.629 | 0.00253 | 4.02e+06 | ≤ 50 | no binding (tested: not given) | no binding (tested: not given) | 1.4 | 0.29 µg/mL and 1.39 nM | –
6 | 326 RAGE-1 (antibody, V domains shown, Anti-RAGE monoclonal antibody from a hybridoma, captured by anti-mouse Fc; also called LP08137; Protein 326 RAGE-1) VH: EVKLVESGGGLVKPGGSLKLSCAASGFAFSSYDMSWVRQTPEKRLEWVATISSGGSYTSYPDSVQGRFTISRDNARNTLYLQMSSLRSEDTALYYCASSQLPPYAMDYWGQGTSVTVSS VL: DIVMTQSQKFMSTSVGDRVSITCKASQNVGTAVAWYQQKPGQSPKLLIYSASNRYTGVPDRFTGSGSGTDFTLTISNMQSEDLADYFCQQYSSYPLLTFGAGTKLELK | 0.097 µg/mL and 0.64 nM | no binding | no binding | 0.6 | – | – | – | 0.596 | 0.00171 | 2.87e+06 | – | no binding (tested: not given) | no binding (tested: not given) | – | – | –

Next, values leading:

Row | IC50 (RAGE-Fc [1]) | binding result (RAGE C2 domain) | binding result (RAGE V domain) | IC50 (RAGE-Fc [2]) [nM] | inhibitory effect (RAGE-Fc [3]) [%] | IC50 (RAGE-Fc [4]) [nM] | IC50 (RAGE-Fc [5]) | Kd [6] [nM] | koff [6] [s⁻¹] | kon [6] [M⁻¹ s⁻¹] | maximum inhibitory effect (RAGE-Fc [7]) [%] | binding result (rat sRAGE) | binding result (mouse sRAGE) | IC50 (RAGE-Fc [8]) [nM] | IC50 (RAGE-Fc [9]) | binding result (RAGE V-C1 domains) | Binder
7 | 0.128 µg/mL | no binding | no binding | 0.8 | > 20 | 55.5 | 8.33 µg/mL | 0.234 | 0.000758 | 3.24e+06 | ≤ 50 | no binding (tested: not given) | no binding (tested: not given) | – | – | – | 166 RAGE-1 (antibody, V domains shown, Anti-RAGE monoclonal antibody from a hybridoma, captured by anti-mouse Fc; also called LP08122; LP08122D) VH: QVQLQQSGPELVKPGTSVRISCKASGYTFTSYYIHWVKQRPGQGLEWIGWIYPGNVITNYHEKFKGKASLTADKSSSTAYMQLSSLTSEDSAVYFCAREDPFAYWGQGTLVTVSA VL: NIMMTQSPSSLAVSAGEKVTMSCKSSQSVLYSSNQKNYLAWYQQKPGQSPKLLIYWASTRESGVPDRFTGSGSGTDFTLTISSVQAEDLAVYYCHQYLSSYTFGGGTKLEIK
8 | 0.123 µg/mL | no binding | – | 0.8 | > 20 | 44.4 | 6.66 µg/mL | 0.222 | 0.000769 | 3.47e+06 | ≤ 50 | no binding (tested: not given) | no binding (tested: not given) | 2.1 | 0.31 µg/mL and 2.06 nM | – | 240 RAGE-1 (antibody, V domains shown, Anti-RAGE monoclonal antibody from a hybridoma, captured by anti-mouse Fc; also called LP08108) VH: QIQLVQSGPELKKPGETVKISCKASGYTFTDYSMHWVKQAPGKGLKWMGWINTETGEPTYADDFKGRFAFSLETSASTAYLQINNLKNEDTATYFCARDYLYYYAMDYWGQGTSVTVSS VL: DVVLTQTPLSLPVSIGDQASISCKSTKSLLNSDGFTYLDWYLQKPGQSPQLLIYLVSNRFSGVPDSFSGSGSGTDFTLKISRVEAEDLGVYYCFQSNYFPLTFGGGTTLEIK
9 | 0.108 µg/mL | no binding | no binding | 0.7 | – | – | – | 0.512 | 0.00199 | 3.89e+06 | – | – | – | – | – | – | 253 RAGE-1 (antibody, V domains shown, Anti-RAGE monoclonal antibody from a hybridoma, captured by anti-mouse Fc; also called LP08127) VH: QVQLQQSGPELVKPGASVRISCKASGYTFTDYYIHWVKQRPGQGLEWIGWIYPGNVITKYNEKFKGKATLTADKSSSTAYMQLSSLTSEDSAVYFCARYDYDYAMDYWGQGTSVTVSS VL: DIVMSQSPSSLAVSVGEKVTMSCKSSQTLLYSSNQKNYLAWYQQKPGQSLKLLIYWASTRESGVPDRFAGSGSGTDFTLTISSVKAEDLAVYYCQQYFGYPYTFGGGTKLEIK
